Assay results: patent US12195761B2, “Bioprinted, 3D scaffolds for cellular test beds and methods of use thereof” (University of Florida Research Foundation, Inc., priority 2020, dated 2025)

B1: Rat beta-nerve growth factor (protein, UniProt P25427 122-241, looked up)
Beta-nerve growth factor: SSTHPVFHMGEFSVCDSVSVWVGDKTTATDIKGKEVTVLGEVNINNSVFKQYFFETKCRAPNPVESGCRGIDSKHWNSYCTTTHTFVKALTTDDKQAAWRFIRIDTACVCVLSRKAARRG
notes: Rat beta-nerve growth factor (R&D Systems 556-NG-100)
B2: glial cell line-derived neurotrophic factor (protein, UniProt P39905 78-211, looked up)
Glial cell line-derived …: SPDKQMAVLPRRERNRQAAAANPENSRGKGRRGQRGKNRGCVLTAIHLNVTDLGLGYETKEELIFRYCSGSCDAAETTYDKILKNLSRNRRLVSDKVGQACCRPIAFDDDLSFLDDNLVYHILRKHSAKRCGCI
notes: glial cell line-derived neurotrophic factor (R&D Systems 512-GF-010/CF)

What was measured:
rat fibroblast = assay: Supplemental rat fibroblast viability study after printing in the bioink; type: cell-based; conditions: rat fibroblasts; compared to I2959 counterparts
From the text: It is anticipated that crosslinking time can be reduced for the LAP group in the future to further increase viability.^40 Therefore, LAP became the crosslinker used for the later experiments for the advantages of LAP over I2959, as previously reported.^31,41

DRG neurites = assay: DRG neurite outgrowth in competitive in vitro test beds, β-III tubulin neurite length; type: cell-based; conditions: 7 days, n=5; for ratio of neurite length, growth factor side to control side: growth factor/control test bed, 1 μg/mL
Description: (§1) DRG Neurite Outgrowth in Competitive in vitro Test Beds. A 6-layer rectangular model with two arms or “chambers” were printed on each end (12 mm long, 5 mm wide, and 1.7 mm height). A base layer (0.7 mm height) was printed containing only the hydrogel. On top of the base on either side two “chambers” were printed; each chamber contained a concentration of 1 μg/mL of either NGF, GDNF, or no GF as control. To establish a competitive cue assay, three test bed groups were printed: NGF versus control (NGF/control), GDNF/control, or NGF/GDNF. DRGs were trimmed on the same day as testbed fabrication. Each DRG was semi-encapsulated at the center of the hydrogel testbeds by first placing the DRG directly in the middle of the two-chambered testbed and then securing in place with pH-neutralized Col-d solution at a concentration of 3 mg/mL. Col-d allowed for securing the DRG quickly without the need for direct UV exposure of the DRG. The test beds were incubated for 30 minutes to allow for collagen gelation and then media was added. Media was changed three hours following the addition of DRGs to account for bulk growth factor release into the media. DRGs were cultured for 7 days with media being changed every 2 days.
Following 7 days of culture, DRGs were fixed in 2% paraformaldehyde for 1 hour followed by three PBS rinses of 45 minutes each before blocking in 0.3% Triton X-100 and 3% goat serum in 1×PBS for 1 hour. The primary antibodies used were β-III tubulin to identify microtubules (i.e., indicating neurite extension) and GAP43, a “plasticity” protein that is expressed at high levels in neuronal growth cones (a secondary indicator of new neurite formation). Both antibodies were diluted at 1:500 dilutions and incubated on samples at 4° C. for 48 hours. […] ImageJ and the neurite tracer plugin were used to quantify neurite lengths extending from the DRG body. […] Positive area was measured as directional outgrowth from each DRG in the left and right directions toward the growth factor chambers relative to the center of the DRG body. […]

Schwann cells (SCs) = assay: SC migration in 3D bioprinted hydrogels; type: cell-based, Rat; conditions: 1 μg/mL growth factor in bioprinted MAHA 10/Col-I hydrogel; 7 days; n=5
Description: SC Migration in 3D Bioprinted Hydrogels. The experimental groups included 1 μg/mL of NGF or GDNF encapsulated within 1 mL of bioink, whereas the control group contained no growth factor (no GF) (n=5). The bioinks were used to print a cylinder of 8 mm diameter and 2 mm height. The control group was printed without any growth factor. Next, SCs were seeded on top of the hydrogels at a cell density of 10^5 cells/cm^2 and cultured for 7 days with the media changed every 2 days. Hydrogel samples, stained using a Live/Dead assay, were then placed cell-side-down in a 35-mm diameter glass-bottom dish and imaged using a Zeiss LSM 880 laser-scanning confocal microscope. Z-stacked image of 500 μm deep at 10× magnification were analyzed to assess SC migration into the hydrogel using a Zeiss ZEN 2 software by creating a heat map based on relative depth within the hydrogel to measure the farthest migration points (n=5) in each sample. By taking the average of cell migration depth, this assessment examined the total migration into the biomaterials in 3D culture.

[1] = system: DRG neural growth cone (GAP43); assay: DRG neurite outgrowth in competitive in vitro test beds, GAP43 signal; type: cell-based; conditions: normalized to total positive area, 7 days, n=3
Description: as §1
Following 7 days of culture, DRGs were fixed in 2% paraformaldehyde for 1 hour followed by three PBS rinses of 45 minutes each before blocking in 0.3% Triton X-100 and 3% goat serum in 1×PBS for 1 hour. The primary antibodies used were β-III tubulin to identify microtubules (i.e., indicating neurite extension) and GAP43, a “plasticity” protein that is expressed at high levels in neuronal growth cones (a secondary indicator of new neurite formation). Both antibodies were diluted at 1:500 dilutions and incubated on samples at 4° C. for 48 hours. DRGs were then washed with 0.05% Tween-20 in 1×PBS three times for 6 hours each. Secondary antibodies, AlexaFluor 488 α-rabbit and AlexaFluor 568 α-mouse at 1:500 dilutions, were added for 16 hours in blocking buffer. DRGs were rinsed with 0.05% Tween-20 in 1×PBS three times for 6 hours each. Cell nuclei were stained with DAPI in deionized water for 5 minutes at room temperature. For β-III tubulin marker, top-view images of DRGs were acquired with a Zeiss Axio Imager 2 microscope. ImageJ and the neurite tracer plugin were used to quantify neurite lengths extending from the DRG body. From a ranked list of directional neurite lengths, the five longest neurite extensions were averaged for each chamber side. […] For the GAP43 marker, samples were imaged from the top with a Zeiss LMA 880 confocal microscope. ImageJ was used to threshold positive signal for all images. Positive area was measured as directional outgrowth from each DRG in the left and right directions toward the growth factor chambers relative to the center of the DRG body. […]

Row | Molecule | viability of bioprinted cells by photoinitiator (rat fibroblast) | ratio of neurite length, NGF to GDNF (DRG neurites; NGF/GDNF test bed, 1 μg/mL each) | ratio of neurite length, growth factor side to control side (DRG neurites) | SCs migrated distance into hydrogels (Schwann cells (SCs)) [μm] | fraction positive GAP43 signal ([1]; NGF/GDNF test bed) | fraction positive GAP43 signal ([1]; growth factor/control test bed)
1 | Cc1cc(C)c(C(=O)P(=O)([O-])c2ccccc2)c(C)c1.[Li+] [LAP, lithium phenyl-2,4,6-trimethylbenzoyl-phosphinate] | highest viability |  |  |  |  | 
2 | B1 |  | 1.09±0.19 | 1.42±0.13 | 301±89.4 | 0.58 | 0.63
3 | B2 |  |  | 1.41±0.06 | 403±79.6 | 0.42 | 0.66
